molecular target: T1, CbbR (His6-CbbR) (Acidithiobacillus ferrooxidans ATCC 23270) (UniProt B7JB31); assay: EMSA; conditions: 12 mM HEPES-NaOH pH 7.9, 4 mM Tris-HCl pH 7.9, 1 mM EDTA, 60 mM KCl, 1 mM DTT, 10% glycerol, 5 ug/ul BSA, 2 ug/ul poly(dI-dC), 30 C, 15 min, 20 pmol DNA
T1 sequence: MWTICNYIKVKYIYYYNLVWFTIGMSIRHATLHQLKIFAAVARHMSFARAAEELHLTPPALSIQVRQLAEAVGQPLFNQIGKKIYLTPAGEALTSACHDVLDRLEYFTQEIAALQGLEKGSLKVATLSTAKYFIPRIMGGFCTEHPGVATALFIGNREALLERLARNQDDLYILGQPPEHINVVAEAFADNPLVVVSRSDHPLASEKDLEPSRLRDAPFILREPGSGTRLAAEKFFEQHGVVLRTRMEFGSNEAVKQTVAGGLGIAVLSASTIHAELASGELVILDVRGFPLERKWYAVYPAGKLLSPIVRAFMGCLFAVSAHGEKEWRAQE

Sequence | binding
CATTGAACAGGGTCAGCTCCTGGCCATGGCGGGCGCGCAACACCTTGAGCAGATGATGGCTGGCACCTGCCGGCAGCAAAAAGGGGCCGCTTTCGGGCAGGTCGGAATCGGCGTATAAGTGAATGCGCGGCATAGGTTACGATATCGGGCAGGAGAACACAGGTGGGATTATATCATCGTGGCGCTGGCGCAGGTGGCGCATGATCAAAGACTCCGAT (double strand) [Pcbb3 (cbb3 operon promoter region)] | binds
TTTGGGGTGGCAGCAAGAAGTCCTCCTTTCCGGTAGTTGGCCCGGCGCGCTCTTGAGGCCGCACATCCGCCCCGCTTGAGCCAATTTTGCCTTTGCGGTGAGCGGGTTTCACTTCGCTTGTGGCGCTTTCCTTTGATATAGTGCGCGCTGTCCCTGTCGCGCTGCGACAGGTCGGCCTAGCTATTGAGGAGCCCAGTGCATGTCCAAAAGTCATCTTTTCACCTCTGAATCCGTTTCC (double strand) [Pcbb4 (cbb4 operon promoter region)] | no binding
ACGACGGCGGCAAGCACCGCCAACCACCGAACATCAGACGCGTAGTCACAAACCACCATCACATCAGTGATACGTTATTGAAAAAATAATAACTACTTATTAGCGCTTATGATTCACCCGCACTATAGTTCGATCATCGCTGCAGACGCAGCGATTGCGCCGGGGGCACCGGCGTCGGGCAACTGCATGGAGGTGGCATATGGCCGTCAAGACCTATAACGCGGGTGTGAAGGATTACCGG (double strand) [Pcbb2 (cbb2 operon promoter region)] | binds
CGGCAGCGAAGATCTTGAGTTGGTGCAAGGTTGCATGACGGATAGACATGCCAATAGTAAACCATACTAAATTATAATAGTAAATATATTTTACTTTTATATAGTTACAGATCGTCCACAATGCTACCCAAGCATTGGAACCTGGCAGGTGGCTCCAATCACCATCGTCTACCATGACACAAGGAGAGCAAGCATGGCCGTAAAAAAGTATGAGGCCGGAG (double strand) [Pcbb1 (cbb1 operon promoter region)] | binds

From publication PMC2942843
